From publication PMC5976439 come the findings set out here.

In assay [1] the target is wild type mononucleosome (recombinant Xenopus laevis histone octamer on 601 DNA) (Xenopus laevis).
Assay [2] concerns the target APM (acidic patch mutant) mononucleosome, H2A E61A, E64A, D90A, D92A (Xenopus laevis).
Assay [3] addresses wild type mononucleosome (recombinant Xenopus laevis histone octamer on 601 DNA) (Xenopus laevis). The source holds these as a separate data set.

As for “LANA peptide (from the latency associated nuclear antigen of Kaposi's sarcoma-associated herpesvirus)”, in assay [1], the reduction of the rate constant of remodeling of WT nucleosomes by sub-saturating SNF2h, dose-dependent, up to 50 µM LANA peptide; the pair that is blocked: SNF2h and the nucleosome came out at 200 fold.

On to “SNF2h (human ISWI ATPase), purified from E. coli (from UniProt O60264 1-1052) (enzyme)”, for which the apparent Km (KM^app) of the gel remodeling rate against SNF2h concentration, 0/60 APM nucleosomes, cooperative binding model in assay [2] amounted to 0.28 µM. Also, the apparent Km (KM^app) of the gel remodeling rate against SNF2h concentration, 0/60 WT nucleosomes, cooperative binding model in assay [3] worked out at 0.061 µM.
